Molecular target: ppia_human PPIA (UniProt P62937)
Sequence (P62937 whole entry, looked up): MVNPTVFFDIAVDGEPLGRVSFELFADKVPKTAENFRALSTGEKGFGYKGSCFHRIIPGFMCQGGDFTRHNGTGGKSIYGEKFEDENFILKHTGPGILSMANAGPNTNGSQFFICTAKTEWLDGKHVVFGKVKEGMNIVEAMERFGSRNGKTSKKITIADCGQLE

Row | Substance | effect of a mutation on the interaction
1 | Nucleoprotein (Human SARS coronavirus), P59595 I305A | decreasing interaction strength
2 | Nucleoprotein (Human SARS coronavirus), P59595 Q307A | decreasing interaction strength
3 | Nucleoprotein (Human SARS coronavirus), P59595 Q307D | decreasing interaction strength
4 | Nucleoprotein (Human SARS coronavirus), P59595 W302A | decreasing interaction strength
